# Results from paper PMC4576867 (The Journal of Cell Biology, 2015).
# Molecular target: the molecule itself
# Test: AUC
protein,measurement,value
"cytosolic domain of S. cerevisiae Sey1p (residues 1-680) (domain or fragment, UniProt Q99287 1-680, looked up) MADRPAIQLIDEEKEFHQSALQYFQQCIGNRDVGLDYHVISVFGSQSSGKSTLLNVLFNTNFDTMDAQVKRQQTTKGIWLAHTKQVNTTIEIDNDRPDIFVLDVEGSDGSERGEDQDFERKAALFAIAVSEVLIVNMWEQQIGLYQGNNMALLKTVFEVNLSLFGKNDNDHKVLLLFVIRDHVGVTPLSSLSDSVTRELEKIWTELSKPAGCEGSSLYDYFDLKFVGLAHKLLQEDKFTQDVKKLGDSFVMKGTENYYFKPQYHHRLPLDGWTMYAENCWDQIERNKDLDLPTQQILVARFKTEEISNEALEEFISKYDESIAPLKGNLGSLTSQLVKLKEECLTKYDEQASRYARNVYMEKREALNTKLNSHISGTINEFLESLMEKLWDDLKLEVSSRDKATTSFVESVAAGKSKIEKEFNESMETFKKLGLLISNEEITCKFSDDIEERIKQLRDAELKAKIGRIKKNLVPELKDHVIHLLSHPSKKVWDDIMNDFESTIKDNISAYQVEKDKYDFKIGLSESENAKIYKNIRILAWRTLDTTVHDYLKIDTIVSILRDRFEDVFRYDAEGSPRLWKTEEEIDGAFRVAKEHALEVFEVLSLAVTSDNVEIIPDVPMAEEESGEDNEIYRDNEGVFHSRRFAHILTELQKENVLDQFRRQINITVLDSKRSIITTRT",stoichiometry N,2
